Read-outs that look alike come from different tables or passages of the source. No end group written: not given here. *: point of attachment. Biotin = O=C1N[C@H]2[C@H](CS[C@H]2CCCCC(=O)*)N1
What was measured:
[1] = molecular target: T1, biotinylated rCSP (biotin/rCSP, Example 3) (Plasmodium falciparum strain 3D7, UniProt P02893 19-389, biotinylated (sites not given)); assay: BLI (Octet), biotin-rCSP on streptavidin sensor, antibody in solution
T1 construct: also called biotin/Pf CSP
T1 chain: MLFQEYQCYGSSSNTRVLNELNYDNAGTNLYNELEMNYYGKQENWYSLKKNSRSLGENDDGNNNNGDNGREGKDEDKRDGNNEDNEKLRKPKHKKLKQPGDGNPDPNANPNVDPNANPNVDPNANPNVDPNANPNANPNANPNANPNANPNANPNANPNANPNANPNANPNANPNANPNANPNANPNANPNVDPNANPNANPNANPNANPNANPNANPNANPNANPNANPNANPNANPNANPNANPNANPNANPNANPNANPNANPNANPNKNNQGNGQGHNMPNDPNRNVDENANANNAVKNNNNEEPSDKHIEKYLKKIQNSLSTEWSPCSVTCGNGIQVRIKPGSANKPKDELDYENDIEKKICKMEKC

[2] = molecular target: T2, Recombinant CSP (Wellcome Trust Sanger Institute, FIG. 22), CSP ectodomain with BirA biotinylation tag, … (Plasmodium falciparum strain 3D7, UniProt Q7K740 19-376, biotinylated at the BirA substrate peptide); assay: SPR, IgG1 captured, CSP as analyte, 40 C; apparent affinity (avidity)
T2 construct: extracellular domain; Expressed in HEK293, 45 kDa; order of the tags is that of the legend, not confirmed; also called biotinylated recombinant CSP

[3] = molecular target: T3, Peptide #1 (Biotin-SGSGKPKHKKLKQPGDGNPDPNANP) (N-terminal biotin); assay: BLI, biotin-peptide on streptavidin sensor, IgG1 in solution, 25 C
T3 construct: also called Peptide #1 44286
T3 peptide: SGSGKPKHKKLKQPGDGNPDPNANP

[4] = molecular target: T4, Peptide #17 (Biotin-SGSGDGNPDPNANPNA); assay: as above
T4 construct: alanine scan variant; also called Peptide #17 44301
T4 peptide: Biotin-SGSGDGNPDPNANPNA

[5] = molecular target: T5, Peptide #7 (Biotin-SGSGDANPDPNANPNV); assay: as above
T5 construct: alanine scan variant; also called Peptide #7 44291
T5 peptide: Biotin-SGSGDANPDPNANPNV

[6] = molecular target: T6, Peptide #5 (Biotin-SGSGDGNPDPNANPNV), original sequence of the alanine scan; assay: as above
T6 construct: also called Peptide #5 44289
T6 peptide: Biotin-SGSGDGNPDPNANPNV

[7] = molecular target: T7, Peptide #8 (Biotin-SGSGDGAPDPNANPNV); assay: as above
T7 construct: alanine scan variant; also called Peptide #8 44292
T7 peptide: Biotin-SGSGDGAPDPNANPNV

[8] = molecular target: T8, Peptide #16 (Biotin-SGSGDGNPDPNANPAV); assay: as above
T8 construct: alanine scan variant; also called Peptide #16 44300
T8 peptide: Biotin-SGSGDGNPDPNANPAV

[9] = molecular target: T9, Peptide #4 (Biotin-SGSGNPDPNANP); assay: as above
T9 construct: also called Peptide #4 44285
T9 peptide: Biotin-SGSGNPDPNANP

[10] = molecular target: T10, Peptide #10 (Biotin-SGSGDGNPAPNANPNV); assay: as above
T10 construct: alanine scan variant; also called Peptide #10 44294
T10 peptide: Biotin-SGSGDGNPAPNANPNV

[11] = molecular target: T11, Peptide #11 (Biotin-SGSGDGNPDANANPNV); assay: as above
T11 construct: alanine scan variant; also called Peptide #11 44295
T11 peptide: Biotin-SGSGDGNPDANANPNV

[12] = molecular target: T12, Peptide #6 (Biotin-SGSGAGNPDPNANPNV); assay: as above
T12 construct: alanine scan variant; also called Peptide #6 44290
T12 peptide: Biotin-SGSGAGNPDPNANPNV

[13] = molecular target: T13, Peptide #12 (Biotin-SGSGDGNPDPAANPNV); assay: as above
T13 construct: alanine scan variant; also called Peptide #12 44296
T13 peptide: Biotin-SGSGDGNPDPAANPNV

[14] = molecular target: T14, Peptide #9 (Biotin-SGSGDGNADPNANPNV); assay: as above
T14 construct: alanine scan variant; also called Peptide #9 44293
T14 peptide: Biotin-SGSGDGNADPNANPNV

[15] = molecular target: T15, Peptide #14 (Biotin-SGSGDGNPDPNAAPNV); assay: as above
T15 construct: alanine scan variant; also called Peptide #14 44298
T15 peptide: Biotin-SGSGDGNPDPNAAPNV

[16] = molecular target: T16, Peptide #15 (Biotin-SGSGDGNPDPNANANV); assay: as above
T16 construct: alanine scan variant; also called Peptide #15 44299
T16 peptide: Biotin-SGSGDGNPDPNANANV

[17] = molecular target: T17, Peptide #3 (Biotin-SGSGHKKLKQPGDGNPDPNANPN) (N-terminal biotin); assay: as above
T17 construct: also called Peptide #3 44288
T17 peptide: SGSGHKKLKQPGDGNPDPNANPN

[18] = molecular target: T1, biotinylated rCSP (biotin/rCSP, Example …); assay: BLI (Octet), biotin-rCSP on streptavidin sensor, antibody in solution
[19] = molecular target: T18, full CSP protein (analyte of Example 12) (Plasmodium falciparum (isolate 3D7), UniProt Q7K740 19-374); assay: SPR, IgG1 from supernatant on anti-human IgG surface, CSP as analyte, 25 C, 1:1 fit
T18 construct: not shown: C-terminal tags

[20] = molecular target: T3, Peptide #1 …; assay: BLI, biotin-peptide on streptavidin sensor, IgG1 in solution, 25 C
[21] = molecular target: T4, Peptide #17 (Biotin-SGSGDGNPDPNANPNA); assay: as above
[22] = molecular target: T5, Peptide #7 (Biotin-SGSGDANPDPNANPNV); assay: as above
[23] = molecular target: T6, Peptide #5 (Biotin-SGSGDGNPDPNANPNV), …; assay: as above
[24] = molecular target: T7, Peptide #8 (Biotin-SGSGDGAPDPNANPNV); assay: as above
[25] = molecular target: T8, Peptide #16 (Biotin-SGSGDGNPDPNANPAV); assay: as above
[26] = molecular target: T9, Peptide #4 (Biotin-SGSGNPDPNANP); assay: as above
[27] = molecular target: T10, Peptide #10 (Biotin-SGSGDGNPAPNANPNV); assay: as above
[28] = molecular target: T11, Peptide #11 (Biotin-SGSGDGNPDANANPNV); assay: as above
[29] = molecular target: T12, Peptide #6 (Biotin-SGSGAGNPDPNANPNV); assay: as above
[30] = molecular target: T13, Peptide #12 (Biotin-SGSGDGNPDPAANPNV); assay: as above
[31] = molecular target: T14, Peptide #9 (Biotin-SGSGDGNADPNANPNV); assay: as above
[32] = molecular target: T15, Peptide #14 (Biotin-SGSGDGNPDPNAAPNV); assay: as above
[33] = molecular target: T16, Peptide #15 (Biotin-SGSGDGNPDPNANANV); assay: as above
[34] = molecular target: T17, Peptide #3 …; assay: as above

B1: Antibody 667, human IgG1 (antibody, V domains shown)
VH: QVQLVQSGAEVKKPGASVKVSCRASGYTFTNYAMHWVRQAPGQRLEWMGWINAGNGYTKYSQKFQDRVTITRDTSATTAYMELSSLRSEDTAMYYCARDSFYDILSGPVYHYYGMDVWGQGTTVTVSS
VL: QSALTQPDSVSGSPGQSITISCTGTSNDVGIYNHVSWYQQHPGKAPKLMIYDVNKRPSGISNRFSGSKSGDTASLTISGLQAEDEADYYCCSYAGSSAWVFGGGTKLTVL
notes: human IgG1 with human lambda light chain constant region; also called AB-000667; Ab667
[1]
  Kd: 0.341 nM
  koff: 5.67e-05 s⁻¹
  kon: 166000 M⁻¹ s⁻¹
[2]
  Kd: 0.31 nM
  koff: 6.46e-05 s⁻¹
  kon: 215000 M⁻¹ s⁻¹
[3]
  Response (nm): 0.645 nm
[4]
  Response (nm): 1.09 nm
[5]
  Response (nm): 0.951 nm
[6]
  Response (nm): 0.635 nm
[7]
  Response (nm): 0.692 nm
[8]
  Response (nm): 0.651 nm
[9]
  Response (nm): 0.163 nm
[10]
  Response (nm): 3.22 nm
[11]
  Response (nm): 0.0953 nm
[12]
  Response (nm): 0.907 nm
[13]
  Response (nm): 0.0529 nm
[14]
  Response (nm): 0.696 nm
[15]
  Response (nm): -0.0141 nm
[16]
  Response (nm): 0.213 nm
[17]
  Response (nm): 0.814 nm
[18]
  Kd: 0.34 nM

B2: Antibody 666, human IgG1 (antibody, V domains shown)
VH: QVQLVQSGAEVKKPGASVKVSCKASGYTFTNYAMHWVRQAPGQRLEWMGWINAGNGNTKYSQNFQGRVTITRDTSASTAYMELSSLRSEDTAVYYCARDEYYASGSYYDYYYYGMDVWGQGTTVTVTS
VL: QSALTQPASVSGSPGQSITISCTGTSSDVGVYNYVSWFQQHPGKAPKLMIYNVSKRPSGVSNRFSGSKSGNTASLTISGLQAEDEADYYCCSYAGSSTWVFGGGTNLTVL
notes: human IgG1; also called Ab666
[19]
  kon: 1e+08 M⁻¹ s⁻¹
[2]
  Kd: 0.18 nM
  koff: 1.7e-05 s⁻¹
  kon: 97000 M⁻¹ s⁻¹
[20]
  Response (nm): 9.06 nm
[21]
  Response (nm): 2.95 nm
[22]
  Response (nm): 2.99 nm
[23]
  Response (nm): 2.4 nm
[24]
  Response (nm): 2.23 nm
[25]
  Response (nm): 2.7 nm
[26]
  Response (nm): 7.06 nm
[27]
  Response (nm): 5.18 nm
[28]
  Response (nm): 0.982 nm
[29]
  Response (nm): 3.14 nm
[30]
  Response (nm): 0.0943 nm
[31]
  Response (nm): 1.75 nm
[32]
  Response (nm): 0.0116 nm
  binding result: no binding (tested: LOD 0.020 nm)
[33]
  Response (nm): 0.862 nm
[34]
  Response (nm): 6.53 nm
